Measured values reported in patent US20210317225A1 (Genmab, published 2021).

T1: Human CD137 shuffle 5 (amino acids 48-88 replaced by African elephant CD137) (human, amino acids 48-88 from African …, UniProt Q07011 24-255)
T1 construct: also called shuffle construct 5
T1 chain: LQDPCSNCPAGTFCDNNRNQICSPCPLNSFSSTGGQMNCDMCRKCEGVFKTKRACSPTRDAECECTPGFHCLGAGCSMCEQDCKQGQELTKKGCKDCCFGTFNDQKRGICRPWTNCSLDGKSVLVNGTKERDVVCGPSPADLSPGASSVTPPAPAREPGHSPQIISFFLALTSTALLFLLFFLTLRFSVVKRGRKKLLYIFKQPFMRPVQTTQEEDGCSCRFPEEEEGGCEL

T2: Human CD137 shuffle 1 (amino acids 162-186 replaced by wild boar CD137) (human, amino acids 162-186 from wild …, UniProt Q07011 24-255)
T2 construct: also called shuffle construct 1
T2 chain: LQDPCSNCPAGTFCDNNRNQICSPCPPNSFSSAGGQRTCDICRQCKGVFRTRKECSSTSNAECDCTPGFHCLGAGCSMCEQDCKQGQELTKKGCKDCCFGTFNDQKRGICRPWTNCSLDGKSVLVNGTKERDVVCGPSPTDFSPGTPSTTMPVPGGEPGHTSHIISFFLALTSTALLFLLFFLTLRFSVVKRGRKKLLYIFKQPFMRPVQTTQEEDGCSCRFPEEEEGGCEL

T3: Human CD137 shuffle 2 (amino acids 139-161 replaced by wild boar CD137) (human, amino acids 139-161 from wild …, UniProt Q07011 24-255)
T3 construct: also called shuffle construct 2
T3 chain: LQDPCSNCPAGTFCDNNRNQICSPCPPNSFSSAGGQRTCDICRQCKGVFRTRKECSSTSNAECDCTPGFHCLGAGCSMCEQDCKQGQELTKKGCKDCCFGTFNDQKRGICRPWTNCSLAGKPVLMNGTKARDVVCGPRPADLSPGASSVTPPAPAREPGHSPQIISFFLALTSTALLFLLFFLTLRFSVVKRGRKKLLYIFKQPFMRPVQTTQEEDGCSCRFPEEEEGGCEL

T4: Human CD137 shuffle 3 (amino acids 115-138 replaced by wild boar CD137) (human, amino acids 115-138 from wild …, UniProt Q07011 24-255)
T4 construct: also called shuffle construct 3
T4 chain: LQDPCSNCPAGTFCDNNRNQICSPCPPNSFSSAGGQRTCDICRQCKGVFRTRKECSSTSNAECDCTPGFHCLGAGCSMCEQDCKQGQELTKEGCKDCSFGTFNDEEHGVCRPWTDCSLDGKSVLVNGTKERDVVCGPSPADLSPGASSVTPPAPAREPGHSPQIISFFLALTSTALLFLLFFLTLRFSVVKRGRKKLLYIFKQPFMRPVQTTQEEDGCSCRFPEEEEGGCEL

T5: Human CD137 shuffle 4 (amino acids 89-114 replaced by wild boar CD137) (human, amino acids 89-114 from wild boar, UniProt Q07011 24-255)
T5 construct: also called shuffle construct 4
T5 chain: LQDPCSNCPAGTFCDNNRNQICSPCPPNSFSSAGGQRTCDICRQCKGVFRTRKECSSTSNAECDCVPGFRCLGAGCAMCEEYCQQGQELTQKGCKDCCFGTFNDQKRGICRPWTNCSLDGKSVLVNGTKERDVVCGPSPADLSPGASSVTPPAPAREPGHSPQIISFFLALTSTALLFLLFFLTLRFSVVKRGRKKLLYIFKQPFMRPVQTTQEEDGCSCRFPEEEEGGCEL

T6: Human CD137 shuffle 6 (amino acids 24-47 replaced by wild boar CD137) (human, amino acids 24-47 from wild boar, UniProt Q07011 26-200)
T6 construct: also called shuffle construct 6
T6 chain: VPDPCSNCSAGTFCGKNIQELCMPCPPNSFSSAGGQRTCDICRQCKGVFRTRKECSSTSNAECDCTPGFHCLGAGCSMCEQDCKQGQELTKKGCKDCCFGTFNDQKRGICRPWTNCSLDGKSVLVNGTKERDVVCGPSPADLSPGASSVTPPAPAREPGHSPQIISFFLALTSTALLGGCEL

B1: CD137 antibody clone 010 (rabbit) (antibody, human IgG1, kappa, V domains shown)
VH: QSVEESGGRLVTPGTPLTLTCTVSGFSLSTYAMIWVRQAPGKGLEWIGVVYDNGYISHATWVKGRFTISKTSTTVGLEITSPTTEDTATYFCARSADGSWSTYFNLWGQGTLVTVSS
VL: DIVMTQTPASVEAAVGGTVTIKCQASESISNYLAWYQQKPGQPPKLLIYKASTLASGVSSRFKGSGSGTEFTLTISDLESADAATYYCQTNYCCSSSDNGFAFGGGTEVVVKR
notes: also called Clone 10; CD137 clone 010
B2: CD137 antibody clone 011 (rabbit) (antibody, human IgG1, kappa, V domains shown)
VH: QSLEESGGRLVTPGTPLTLTCTVSGIDLSSYHMCWVRQAPGKGLEYIGYIAYGGNTYYANWAKGRFTISKTSTTVDLRITSPTTEDTATYFCARGYSEDSYWGLWGPGTLVTVSS
VL: AYDMTQTPASVEAAVGGTVTIKCQASQNIENYLAWYQQKPGQPPKLLIYDTSKLTSGVPSRFSGSGSGTDFTLTISGVQSDDAATYYCQQDYGIIFVDNIFGGGTEVVVKR
notes: also called Clone 11; CD137 clone 011
B3: CD137 antibody clone 004 (rabbit) (antibody, human IgG1, kappa, V domains shown)
VH: QSLEESGGRLVTPGTPLTLTCTASGFSLSRYDMSWVRQAPGKGLEYIGVISSSGGTNYANWAKGRFTISKTSTTVDLKITSPTTEDTATYFCAREGDYWDFNLWGPGTLVTVSS
VL: AQVLTQTPSSVSAAVGGTVTINCQASQSISNLLAWYQQKPGQPPKLLIYGASTLASGVPSRFSGSGSGTEFTLTISDLESDDAATYYCAGGFPGLDTVAAFGGGTEAVVTR
notes: also called Clone 4; CD137 clone 004
B4: CD137 antibody clone 005 (rabbit) (antibody, human IgG1, kappa, V domains shown)
VH: QSVEESGGRLVTPGTPLTLTCTASGFTISDFHVTWVRQAPGKGLEWIGTIITSASTTAYATWARGRFTISKSSTTVNLKIVSPTTEDTATYFCARSTYTDTSGYYFDFWGQGTLVTVSS
VL: AQVLTQTASPVSAAVGGTVIINCQSSQSIYNGNRLSWYQQKPGQPPKLLIYSASTLASGVSSRFKGSGSGTQFTLAISDVQSDDAATYYCLGSYDCDSADCFAFGGGTEVVVER
notes: also called Clone 5; CD137 clone 005
B5: CD137 antibody clone 009 (rabbit) (antibody, human IgG1, kappa, V domains shown)
VH: QSLEESGGRLVTPGTPLTLTCTVSGFSLNDYWMSWVRQAPGKGLEWIGYIDVGGSLYYASWAKGRFTISRTSTTVDLKMTSLTTEDTATYFCARGGLTYGFDLWGPGTLVTVSS
VL: DIVMTQTPASVSEPVGGTVTINCQASEDISSYLAWYQQKPGQRPKRLIYGASDLASGVPSRFSASGSGTEYALTISDLESADAATYYCHYYATISGLGVAFGGGTEVVVKR
notes: also called Clone 9; CD137 clone 009

How the values were obtained:
[1] = biological target: T1, Human CD137 shuffle 5 (amino acids …); assay: flow cytometry on transfected HEK293T-17 cells
Procedure: (§1) 3×10⁶ HEK293T-17 cells were seeded in T75 culture flasks (Greiner Bio-One, cat. no. 658175) in 20 mL RPMI 1640 GlutaMAX medium containing 10% FCS (Biochrom, cat. no. S 0115). After O/N incubation, cells were transiently […] with expression vectors encoding the shuffle constructs or the wild boar, African elephant or human CD137 downstream of a constitutively active human elongation factor-1 alpha (EF-1 alpha) promotor using TransIT®-LT1 Transfection Reagent, Mirus Bio (VWR International, cat. no. 731-0029), according to the manufacturer's instructions. The next day, cells were harvested using 1.5 mL Accutase (Sigma Aldrich, cat. no. A6964) (incubation at 37° C. for 5 min.) and flow cytometry was performed, essentially as described in Example 4, to measure surface expression of the shuffle constructs and the human, African elephant and wild boar CD137 and to measure binding of the antibody clones to the different shuffle constructs. To measure cell surface expression of the constructs, transduced cells were incubated with 1 μg/mL goat polyclonal anti-human CD137 (R&D Systems, cat. no. AF838) in FACS buffer (D-PBS supplemented with 5 mM EDTA [Sigma Aldrich, cat. no. 03690] and 5% (v/v) fetal bovine serum [FBS, Biochrom, cat. no. S 0115]) (4° C., 20 min.), followed by incubation with APC-labeled anti-goat IgG (H+L) (R&D Systems, cat. no. F0108) (4° C., 20 min.). Binding of the different CD137 antibody clones to cells expressing the shuffle constructs was measured by incubation of the transduced cells with 1 μg/mL of the antibody clones, followed by APC-labeled AffiniPure F(ab′)2 Fragment (1:50 final dilution; Jackson, cat. no. 109-136-127).

[2] = biological target: T2, Human CD137 shuffle 1 (amino acids …); assay: flow cytometry on transfected HEK293T-17 cells, 1 µg/mL antibody
Procedure: as §1

[3] = biological target: T3, Human CD137 shuffle 2 (amino acids …); assay: as above
Procedure: as §1

[4] = biological target: T4, Human CD137 shuffle 3 (amino acids …); assay: as above
Procedure: as §1

[5] = biological target: T5, Human CD137 shuffle 4 (amino acids …); assay: as above
Procedure: as §1

Human CD137 (TNR9_Human) [6] = biological target: T7, Human CD137 (TNR9_Human) (human, UniProt Q07011 24-255); assay: flow cytometry, HEK293-T17 cells transiently transfected with human CD137, antibody at 1 µg/mL, APC-labeled F(ab')2 secondary [cont.]
T7 construct: Full-length human CD137 expressed on HEK293T-17, NF-kB/293/GFP-Luc or K562 cells, or native on T cells; also called hCD137 wt; 4-1BB
Procedure: (§2) FIG. 4: Binding of CD137 antibody clones to CD137 shuffle constructs expressed on HEK293-T17 cells. HEK293-T17 cells were transfected with the CD137 shuffle constructs, and with human CD137 (hCD137 wt), African elephant of wild boar CD137, as indicated. Binding of the different CD137 antibody clones to these constructs expressed on HEK293-T17 cells was measured by flow cytometry. Staining with polyclonal anti-CD137 antibody is shown as a control.
as §1

[7] = biological target: T4, Human CD137 shuffle 3 (amino acids …); assay: flow cytometry on transfected HEK293T-17 cells
Procedure: as §1

[8] = biological target: T5, Human CD137 shuffle 4 (amino acids …); assay: flow cytometry on transfected HEK293T-17 cells
Procedure: as §1

[9] = biological target: T1, Human CD137 shuffle 5 (amino acids …); assay: flow cytometry on transfected HEK293T-17 cells, 1 µg/mL antibody
Procedure: as §1

Human CD137 (TNR9_Human) [10] = biological target: T7, Human CD137 (TNR9_Human); assay: flow cytometry, HEK293-T17 cells transiently transfected with human CD137, antibody at 1 µg/mL, APC-labeled F(ab')2 secondary
Procedure: as §2, §1
Target sequence in this assay (Q07011 24-255): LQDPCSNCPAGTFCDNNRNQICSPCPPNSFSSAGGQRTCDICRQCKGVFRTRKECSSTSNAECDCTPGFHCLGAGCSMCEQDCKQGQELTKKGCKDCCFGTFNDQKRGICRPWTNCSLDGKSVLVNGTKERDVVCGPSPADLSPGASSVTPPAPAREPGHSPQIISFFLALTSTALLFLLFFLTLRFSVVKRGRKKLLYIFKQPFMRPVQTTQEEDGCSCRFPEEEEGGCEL

[11] = biological target: T6, Human CD137 shuffle 6 (amino acids …); assay: flow cytometry on transfected HEK293T-17 cells
Procedure: as §1

| binding result [1] | binding result [2] | binding result [3] | binding result [4] | binding result [5] | binding result (Human CD137 (TNR9_Human) [6]) | binding result [7] | binding result [8] | binding result [9] | binding result (Human CD137 (TNR9_Human) [10]) | binding result [11] | Binder |
| --- | --- | --- | --- | --- | --- | --- | --- | --- | --- | --- | --- |
| no binding (tested: 1 µg/mL) | binds | binds | binds | binds | binds | – | – | – | – | – | B1 |
| – | binds | binds | – | – | binds | no binding (tested: 1 µg/mL) | no binding (tested: 1 µg/mL) | binds | – | – | B2 |
| – | binds | binds | – | – | – | no binding (tested: 1 µg/mL) | no binding (tested: 1 µg/mL) | binds | binds | – | B3 |
| – | binds | binds | binds | binds | – | – | – | binds | binds | no binding (tested: 1 µg/mL) | B4 |
| no binding (tested: 1 µg/mL) | binds | binds | binds | binds | binds | – | – | – | – | – | B5 |
